Test results from patent EP0528847B1.

Columns and labels:
[1] = target: full-length human γ-interferon receptor, on cells (human) (UniProt P15260); test: ¹²⁵I-IFN-γ binding to COS7 cells transfected with plasmid T884-5, Expt. 1
[2] = target: full-length human γ-interferon receptor, on cells (human) (UniProt P15260); test: ¹²⁵I-IFN-γ binding to COS7 cells transfected with plasmid T886-5, Expt. 2'
[3] = target: full-length human γ-interferon receptor, on cells (human) (UniProt P15260); test: ¹²⁵I-IFN-γ binding to COS7 cells transfected with plasmid T884-5, Expt. 1'
[4] = target: full-length human γ-interferon receptor, on cells (human) (UniProt P15260); test: ¹²⁵I-IFN-γ binding to COS7 cells transfected with plasmid T886-5, Expt. 2
[5] = target: full-length human γ-interferon receptor, on cells (human) (UniProt P15260); test: ¹²⁵I-IFN-γ binding to COS7 cells transfected with plasmid T886-6, Expt. 3
[6] = target: full-length human γ-interferon receptor, on cells (human) (UniProt P15260); test: ¹²⁵I-IFN-γ binding to COS7 cells transfected with plasmid T886-6, Expt. 3'

UniProt P15260, sequence (P15260 18-489): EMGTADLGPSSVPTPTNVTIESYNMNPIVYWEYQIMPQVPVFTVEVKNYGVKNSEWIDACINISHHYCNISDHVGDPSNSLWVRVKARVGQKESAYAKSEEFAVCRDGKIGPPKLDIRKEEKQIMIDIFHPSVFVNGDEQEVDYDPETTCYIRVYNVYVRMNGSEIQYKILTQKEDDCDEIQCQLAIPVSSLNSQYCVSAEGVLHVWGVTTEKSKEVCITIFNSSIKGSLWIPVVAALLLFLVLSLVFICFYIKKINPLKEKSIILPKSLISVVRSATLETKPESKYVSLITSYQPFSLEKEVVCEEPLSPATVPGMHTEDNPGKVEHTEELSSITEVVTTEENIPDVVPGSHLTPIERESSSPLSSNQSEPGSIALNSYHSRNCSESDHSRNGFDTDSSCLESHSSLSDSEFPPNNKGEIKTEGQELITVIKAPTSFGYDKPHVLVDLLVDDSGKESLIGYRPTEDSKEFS

- Background Binding (1), ¹²⁵I IFN-γ cpm bound at 0.1 µg/ml unlabeled IFN-γ [1]: 1830 cpm
- Background Binding (2), ¹²⁵I IFN-γ cpm bound at 10 µg/ml unlabeled IFN-γ [1]: 130 cpm
- Specific Binding (3) = (1) - (2) [1]: 1700 cpm
- Background Binding (1), ¹²⁵I IFN-γ cpm bound at 0.1 µg/ml unlabeled IFN-γ [2]: 2400 cpm
- Background Binding (2), ¹²⁵I IFN-γ cpm bound at 10 µg/ml unlabeled IFN-γ [2]: 198 cpm
- Specific Binding (3) = (1) - (2) [2]: 2210 cpm
- Background Binding (1), ¹²⁵I IFN-γ cpm bound at 0.1 µg/ml unlabeled IFN-γ [3]: 1560 cpm
- Background Binding (2), ¹²⁵I IFN-γ cpm bound at 10 µg/ml unlabeled IFN-γ [3]: 77.8 cpm
- Specific Binding (3) = (1) - (2) [3]: 1480 cpm
- Background Binding (1), ¹²⁵I IFN-γ cpm bound at 0.1 µg/ml unlabeled IFN-γ [4]: 1980 cpm
- Background Binding (2), ¹²⁵I IFN-γ cpm bound at 10 µg/ml unlabeled IFN-γ [4]: 150 cpm
- Specific Binding (3) = (1) - (2) [4]: 1830 cpm
- Background Binding (1), ¹²⁵I IFN-γ cpm bound at 0.1 µg/ml unlabeled IFN-γ [5]: 2530 cpm
- Background Binding (2), ¹²⁵I IFN-γ cpm bound at 10 µg/ml unlabeled IFN-γ [5]: 231 cpm
- Specific Binding (3) = (1) - (2) [5]: 2300 cpm
- Background Binding (1), ¹²⁵I IFN-γ cpm bound at 0.1 µg/ml unlabeled IFN-γ [6]: 2090 cpm
- Background Binding (2), ¹²⁵I IFN-γ cpm bound at 10 µg/ml unlabeled IFN-γ [6]: 69.8 cpm
- Specific Binding (3) = (1) - (2) [6]: 2020 cpm
Substance: human γ-interferon (amino acids 4-137 of the mature protein), produced in E. coli 294 from plasmid pGIF4-137 (from UniProt P01579 4-137) (ligand)
